Here are results for one protein from patent US12655454B2, “Process for producing formate using oxygen-tolerant enzymes” (GWANGJU INSTITUTE OF SCIENCE AND TECHNOLOGY, priority 2022, dated 2026).

Usually Km stands for the substrate concentration at which the rate is half of its maximum. Broadly, the kcat is the number of substrate molecules converted per active site and unit of time at saturation.

Substrate in the series: NC(=O)C1=CN([C@@H]2O[C@H](COP(=O)(O)OP(=O)(O)OC[C@H]3O[C@@H](n4cnc5c(N)ncnc54)[C@H](O)[C@@H]3O)[C@@H](O)[C@H]2O)C=CC1
Briefly: NADH-dependent CO2 reduction kinetics of RcFDH (Michaelis-Menten). The class given is biochemical, Rhodobacter capsulatus. The settings on record: Kpi buffer pH 7.0, absorbance at 365 nm. As for the experimental part:
To construct the Strep-Tag II-fused Rhodobacter capsulatu-derived formate dehydrogenase (RcFDH) expression plasmid, pTrcHis-RcFDH was used as a template. […] was performed to substitute the hexahistidine-tag for strep tag II. pTrcHis-RcFDH was amplified by PCR with the in-fusion primer (FW: SEQ ID NO: 9, RV: SEQ ID NO: 10). The PCR product was mixed with 5× In-Fusion HD Enzyme Premix to generate pTrcHis-strep-RcFDH. The E. coli MC1061 strain was transformed with pTrcHis-Strep-RcFDH, and R. eutropha HF210 [pGE771] strain was used as the Ralstonia eutropha-derived hydrogenase (ReSH)-expressing strain.
The enzyme reaction kinetics of RcFDH were measured for NADH-dependent reduction of CO2 to formate in the presence or absence of O2. The sealing cuvette was filled with 900 μL of Kpi buffer containing NADH and sealed; then, 100% CO2 and a mixed gas consisting of 4% O2 and 96 N2 (or 100% N2 for anaerobic conditions) were injected simultaneously for 30 min at 10 mL/min, respectively. RcFDH (2 mL, 2 μM) was purged with 10 mL/min N2 gas bubbling in a 10 mL sealing vial for 30 min to remove O2 from the air. The reaction was initiated by mixing 100 μL of 2 μM RcFDH with a gas-saturated solution in the sealing cuvette. The final concentration of NADH was varied from 0 to 1 mM.
All measurements were performed in triplicate based on the change in the absorbance at 365 nm in the cuvette, measured using a T60 UV-Vis spectrophotometer (PG Instruments Ltd, Lutterworth, UK). The change in the absorbance over 1 min was plotted using the Michaelis-Menten equation to calculate the kinetic parameters.
The present inventor investigated the enzymatic activities of ReSH and RcFDH in the presence or absence of O2. The NAD^+-dependent H2 oxidation reaction rate by ReSH was measured, and the Michaelis-Menten curve was fitted to calculate the kinetic parameters using Origin 2022 program (FIG. 3A). […] Similarly, the NADH-dependent CO2 reduction reaction rate by RcFDH was measured, and the Michaelis-Menten curve was fitted to calculate the kinetic parameters (FIG. 3B).

The mark [1] stands for this setting: other: 0% O2, NADH varied 0 to 1 mM.
Where [2] appears, read: other: 2% O2, NADH varied 0 to 1 mM.

B1: Strep-Tag II-fused Rhodobacter capsulatus-derived formate dehydrogenase (RcFDH), SEQ ID NO: 6 to SEQ ID NO: 8 (Rhodobacter capsulatus SB 1003) (protein)
chain 1: MKIWLPCDAAAKACGAEAVLAALRLEAEKRGGALDIARNGSRGMIWLEPLLEVETPAGRIGFGPMTPADVPALFDALESHPKALGLVEEIPFFKRQTRLTFARCGRIEPLSLAQFAAAEGWAGLRKALKMTPAEVVEEVLASGLRGRGGAGFPTGIKWRTVAAAQADQKYIVCNVDEGDSGSFADRMLIEGDPFCLVEGMAIAGHAVGATRGYVYIRSEYPDAIAVMRAAIAMAKPFLAEAGFEMEVRVGAGAYVCGEETSLLNSLEGKRGTVRAKPPLPALKGLFGKPTVVNNLLSLAAVPWIIAHGAKAYESFGMDRSRGTIPLQIGGNVKRGGLFETGFGITLGELVEDICGGTASGRPVKAVQVGGPLGAYHPVSDYHLPFCYEQFAGQGGLVGHAGLVVHDDTADMLKLARFAMEFCAIESCGTCTPCRIGAVRGVEVIDRIAAGDASAMPLLDDLCQTMKLGSLCALGGFTPYPVQSAIRHFPADFPCAREAAE
chain 2: MKDLIIPPLDWTQDMGTPKREGAPVHLTIDGVEVTVPAGTSVLRAAAEAGISIPKLCATDNVEPVGSCRLCMVEIEGMRGTPTSCTTPVAPGMRVHTQTPQLQKLRRGVMELYISDHPLDCLTCAANGDCELQDMAGAVGLREVRYQAKDTHFARRDATGPNPRYIPKDNSNPYFSYDPAKCIVCMRCVRACEEVQGTFALTVMGRGFDARISPAAPDFLSSDCVSCGACVQACPTATLVEKSVERIGTPERKVVTTCAYCGVGCSFEAHMLGDQLVRMVPWKGGAANRGHSCVKGRFAYGYATHQDRILKPMIRDKITDPWREVNWTEALDFTATRLRALRDSHGADALGVITSSRCTNEETYLVQKLARAVFGTNNTDTCARVCHSPTGYGLKQTFGTSAGTQDFDSVEETDLALVIGANPTDGHPVFASRLRKRLRAGAKLIVVDPRRIDLLNTPHRGEAWHLQLKPGTNVAVMTAMAHVIVTEQIFDKRFIGDRCDWDEWADYAEFVANPEYAPEAVESLTGVPAGLLRQAARAYAAAPNAAIYYGLGVTEHSQGSTTVIAIANLAMMTGNIGRPGVGVNPLRGQNNVQGSCDMGSFPHEFPGYRHVSDDATRGLFERTWGVTLSSEPGLRIPNMLDAAVEGRFKALYVQGEDILQSDPDTRHVSAGLAAMDLVIVHDLFLNETANYAHVFLPGSTFLEKDGTFTNAERRINRVRRVMAPKAGFADWEVTQMLANALGAGWHYTHPSEIMAEIAATTPGFAAVTYEMLDARGSVQWPCNEKAPEGSPIMHVEGFVRGKGRFIRTAYLPTDEKTGPRFPLLLTTGRILSQYNVGAQTRRTENTVWHGEDRLEIHPTDAETRGIRDGDWVRLASRAGETTLRATVTDRVSPGVVYTTFHHPDTQANVVTTDTSDWATNCPEYKVTAVQVAASNGPSDWQQDYAAQAAAARRIEAAE
For B1, under setting [1], the Km is 166 ± 30 µM and the kcat was found to be 0.703 ± 0.043 s⁻¹. Also, under setting [2], the Km came out at 141 ± 22 µM and the kcat is 0.699 ± 0.035 s⁻¹.
